{"source": "the PETadex activity labels (doi:10.1016/s0021-9258(17)37371-4)", "proteins": {"B1": {"name": "unnamed (protein)", "chain": "MRPPQCLLHTPSLASPLLLLLLWLLGGGVGAEGREDAELLVTVRGGRLRGIRLKTPGGPVSAFLGIPFAEPPMGPRRFLPPEPKQPWSGVVDATTFQSVCYQYVDTLYPGFEGTEMWNPNRELSEDCLYLNVWTPYPRPTSPTPVLVWIYGGGFASGASSLDVYDGRFLVQAERTVLVSMNYRVGAFGFLALPGSREAPGNVGLLDQRLALQWVQENVAAFGGDPTSVTLFGESAGAASVGMHLLSPPSRGLFHRAVLQSGAPNGPWATVGMGEARRRATQLAHLVGCPPGGTGGNDTELVACLRTRPAQVLVNHEWHVLPQESVFRFSFVPVVDGDFLSDTPEALINAGDFHGLQVLVGVVKDEGSYFLVYGAPGFSKDNESLISRAEFLAGVRVGVPQVSDLAAEAVVLHYTDWLHPEDPARLREALSDVVGDHNVVCPVAQLAGRLAAQGARVYAYVFEHRASTLSWPLWMGVPHGYEIEFIFGIPLDPSRNYTAEEKIFAQRLMRYWANFARTGDPNEPRDPKAPQWPPYTAGAQQYVSLDLRPLEVRRGLRAQACAFWNRFLPKLLSATDTLDEAERQWKAEFHRWSSYMVHWKNQFDHYSKQDRCSDL"}, "B2": {"name": "unnamed (protein)", "chain": "B1 chain with E316A, W317A"}, "B3": {"name": "unnamed (protein)", "chain": "B1 chain with A155Y"}, "B4": {"name": "unnamed (protein)", "chain": "B1 chain with A155Y, F369A"}}, "note": "Residue numbers refer to the chain shown, from its start."}
{"substrate": "Acetylcholine", "conditions": "pH 8; 27 °C", "units": {"Km": "µM", "kcat": "s⁻¹", "kcat/Km": "M⁻¹ s⁻¹"}}
{"protein": "B1", "Km": 250, "kcat": 4170, "kcat/Km": "1.67e+07"}
{"protein": "B2", "Km": 280, "kcat": 2330, "kcat/Km": "8.33e+06"}
{"protein": "B3", "Km": 120, "kcat": 7000, "kcat/Km": "5.83e+07"}
{"protein": "B4", "Km": 140, "kcat": 2830, "kcat/Km": "2.02e+07"}
